Experimental data as given in paper PMC5624926 (2017).
Like-named read-outs stand apart in the source and are kept apart here.

What was measured:
[1] = biological target: T1, CD22_(20–687) (human, UniProt P20273 20-687, N-linked glycans; glycoform not stated); assay: BLI
[2] = biological target: T1, CD22_(20–687); assay: BLI; remark: listed apart in the source

B1: epratuzumab Y(L27D)A (antibody, V domains shown)
VH: QVQLVQSGAEVKKPGSSVKVSCKASGYTFTSYWLHWVRQAPGQGLEWIGYINPRNDYTEYNQNFKDKATITADESTNTAYMELSSLRSEDTAFYFCARRDITTFYWGQGTTVTVSS
VL: DIQLTQSPSSLSASVGDRVTMSCKSSQSVLASANHKNYLAWYQQKPGKAPKLLIYWASTRESGVPSRFSGSGSGTDFTLTISSLQPEDIATYYCHQYLSSWTFGGGTKLEIKR
**Q.** B1 was tested. Which Kd [1] did it give?
**A.** 1700 nM

B2: epratuzumab N(H52)A (antibody, V domains shown)
VH: QVQLVQSGAEVKKPGSSVKVSCKASGYTFTSYWLHWVRQAPGQGLEWIGYIAPRNDYTEYNQNFKDKATITADESTNTAYMELSSLRSEDTAFYFCARRDITTFYWGQGTTVTVSS
VL: DIQLTQSPSSLSASVGDRVTMSCKSSQSVLYSANHKNYLAWYQQKPGKAPKLLIYWASTRESGVPSRFSGSGSGTDFTLTISSLQPEDIATYYCHQYLSSWTFGGGTKLEIKR
**Q.** With B2 as the binder, how does the Kd [1] read?
**A.** 260 nM

B3: epratuzumab Fab (Fab, V domains shown)
VH: QVQLVQSGAEVKKPGSSVKVSCKASGYTFTSYWLHWVRQAPGQGLEWIGYINPRNDYTEYNQNFKDKATITADESTNTAYMELSSLRSEDTAFYFCARRDITTFYWGQGTTVTVSS
VL: DIQLTQSPSSLSASVGDRVTMSCKSSQSVLYSANHKNYLAWYQQKPGKAPKLLIYWASTRESGVPSRFSGSGSGTDFTLTISSLQPEDIATYYCHQYLSSWTFGGGTKLEIK
**Q.** With B3 as the binder, how does the Kd [2] read?
**A.** 120 nM
